Molecular target: T1, human transferrin hTF (Sigma T-4132) (human, UniProt P02787 20-698)
T1 construct: Bought protein
Experiment: gel filtration (Superdex 200 PC 3.2/30) of each protein and of the mixture, fractions analysed by SDS-PAGE

T1 sequence (P02787 20-698 limits assumed): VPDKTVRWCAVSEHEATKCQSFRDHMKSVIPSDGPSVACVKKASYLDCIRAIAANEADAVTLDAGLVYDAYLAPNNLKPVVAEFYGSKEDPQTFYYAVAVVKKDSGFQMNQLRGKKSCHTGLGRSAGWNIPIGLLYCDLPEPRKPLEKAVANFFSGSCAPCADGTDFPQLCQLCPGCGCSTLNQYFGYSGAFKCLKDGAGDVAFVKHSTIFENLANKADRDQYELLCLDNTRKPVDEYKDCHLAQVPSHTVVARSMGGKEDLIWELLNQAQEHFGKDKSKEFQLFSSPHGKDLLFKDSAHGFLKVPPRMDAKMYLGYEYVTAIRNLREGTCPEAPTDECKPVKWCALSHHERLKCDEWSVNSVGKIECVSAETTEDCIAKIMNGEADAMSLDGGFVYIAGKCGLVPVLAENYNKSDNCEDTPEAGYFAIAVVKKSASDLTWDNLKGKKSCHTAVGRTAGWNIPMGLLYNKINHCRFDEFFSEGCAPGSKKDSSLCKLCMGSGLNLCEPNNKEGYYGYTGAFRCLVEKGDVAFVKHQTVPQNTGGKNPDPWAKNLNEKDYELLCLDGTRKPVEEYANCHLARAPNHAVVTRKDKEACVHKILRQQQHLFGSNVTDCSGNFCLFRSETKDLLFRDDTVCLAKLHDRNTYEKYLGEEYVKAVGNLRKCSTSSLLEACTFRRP

B1: recombinant NMB1870 (strain MC58, variant 1), His-tag fusion expressed in E. coli without the leader peptide (other)
chain: CSSGGGGVAADIGAGLADALTAPLDHKDKGLQSLTLDQSVRKNEKLKLAAQGAEKTYGNGDSLNTGKLKNDKVSRFDFIRQIEVDGQLITLESGEFQVYKQSHSALTAFQTEQIQDSEHSGKMVAKRQFRIGDIAGEHTSFDKLPEGGRATYRGTAFGSDDAGGKLTYTIDFAAKQGNGKIEHLKSPELNVDLAAADIKPDGKRHAVISGSVLYNQAEKGSYSLGIFGGKAQEVAGSAEVKTVNGIRHIGLAAKQ
notes: also called purified NMB1870; the recombinant protein; not shown: His-tag (pET-21b+ vector)
Q: Does B1 bind?
A: Result: no binding (tested: 7 µM)
